Experiment [1] addresses T1, GST-human EphA4 ligand binding domain (LBD) (human, UniProt P54764 29-209).
T1 construct: also called EphA4 LBD; EphA4 LBD recombinant protein; not shown: glutathione S-transferase (GST) tag
Kind of experiment: isothermal titration calorimetry, 20 µM LBD protein and 1 µM antibody. As for the experimental part: FIG. 5. […] Isothermal titration calorimetry (ITC) experiments were carried out by incubating 20 μM Eph LBD protein in the cell with 1 μM antibodies.
To investigate the binding property of the IgG1s m101, m105, and m119 to EphA4, GST-human EphA4 ligand binding domain (LBD) was expressed and purified. The recognition of EphA4 LBD by the 3 IgG1s m101, m105, and m119 was determined by Western blot analysis. The EphA4 LBD protein was run on SDS-PAGE and they were immunoblotted with the 3 IgG1s (FIG. 4). The kinetics of the 3 IgG1s and EphA4 LBD interaction were further analyzed by conducting isothermal titration calorimetry (ITC) experiments. The heat generated by the interaction of EphA4 LBD recombinant protein with the IgG1s was measured with a sensitive calorimeter.

In experiment [2] the target is T2, extracellular domain of mouse EphA4 recombinant protein (mouse, UniProt Q03137 20-547).
T2 construct: also called mouse EphA4 extracellular domain
T2 sequence (Q03137 20-547 limits assumed): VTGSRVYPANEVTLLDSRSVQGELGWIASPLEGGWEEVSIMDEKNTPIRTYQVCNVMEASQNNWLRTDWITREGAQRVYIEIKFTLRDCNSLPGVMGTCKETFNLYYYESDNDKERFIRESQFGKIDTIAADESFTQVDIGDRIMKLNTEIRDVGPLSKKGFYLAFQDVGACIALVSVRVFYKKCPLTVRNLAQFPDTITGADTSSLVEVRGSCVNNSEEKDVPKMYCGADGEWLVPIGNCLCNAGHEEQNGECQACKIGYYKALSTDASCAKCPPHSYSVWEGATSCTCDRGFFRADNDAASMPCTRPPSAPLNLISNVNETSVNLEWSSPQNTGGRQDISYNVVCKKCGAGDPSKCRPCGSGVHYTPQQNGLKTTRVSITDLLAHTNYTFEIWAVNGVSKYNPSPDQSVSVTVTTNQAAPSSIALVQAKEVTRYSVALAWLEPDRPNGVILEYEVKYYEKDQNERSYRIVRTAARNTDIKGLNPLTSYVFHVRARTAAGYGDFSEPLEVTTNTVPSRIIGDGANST
Kind of experiment: competitive ELISA, mouse EphA4 ECD coated; competitor biotinylated mouse ephrin-A1 Fc; ligand mEphrin-A1. How it is done: (§1) Extracellular domain of mouse EphA4 recombinant protein or extracellular domain of mouse EphB2 recombinant protein was first incubated with IgG1 m105, followed by incubating with different biotinylated recombinant mouse ephrin-A/ephrin-B Fc chimeric proteins. The effect of IgG1 m105 on the interaction of EphA4/EphB2 and ephrin-A/ephrin-B was then determined via the streptavidin-biotin detection method.
(§2) The EphA4 proteins were coated on a 96-well plate (Costar) at 50 ng/well in PBS overnight at 4° C. For phage ELISA, phages from each round of panning (polyclonal phage ELISA) or clones randomly picked from the infected TG 1 cells (monoclonal phage ELISA) were incubated with immobilized antigen. Bound phages were detected with anti-M13-HRP polyclonal Ab (Pharmacia, Piscataway, N.J.). For the soluble Fab binding assay, HRP-conjugated mouse anti-FLAG tag Ab (Sigma-Aldrich) was used to detect Fab binding. For the IgG1 binding assay, HRP-conjugated anti-Fab Ab (Sigma-Aldrich) was used for detection. For competitive ELISA assay, extracellular domain of mouse EphA4 recombinant protein or extracellular domain of mouse EphB2 recombinant protein was pre-coated on the ELISA plate and then incubated with different IgG1s for 1 hr at room temperature. […] The interaction of EphA4/EphB2 and ephrin-A/ephrin-B was determined via the streptavidin-biotin detection method.

The target of experiment [3] is T2, extracellular domain of mouse EphA4 …. Kind of experiment: competitive ELISA: mouse EphA4 extracellular domain coated, incubated with IgG1 m105, then biotinylated mouse ephrin-B2 Fc; streptavidin-biotin detection, % of inhibition. How it is done:
as §1, §2

The target is the same in experiment [4]. Kind of experiment: competitive ELISA, mouse EphA4 ECD coated; competitor biotinylated mouse ephrin-A1 Fc. How it is done:
The interaction of EphA4 and ephrin-A that attenuated by the IgG1s was determined via the streptavidin-biotin detection method. IC50 of the 3 IgG1s were determined.
(§3) The EphA4 proteins were coated on a 96-well plate (Costar) at 50 ng/well in PBS overnight at 4° C. For phage ELISA, phages from each round of panning (polyclonal phage ELISA) or clones randomly picked from the infected TG 1 cells (monoclonal phage ELISA) were incubated with immobilized antigen. Bound phages were detected with anti-M13-HRP polyclonal Ab (Pharmacia, Piscataway, N.J.). For the soluble Fab binding assay, HRP-conjugated mouse anti-FLAG tag Ab (Sigma-Aldrich) was used to detect Fab binding. For the IgG1 binding assay, HRP-conjugated anti-Fab Ab (Sigma-Aldrich) was used for detection. For competitive ELISA assay, extracellular domain of mouse EphA4 recombinant protein or extracellular domain of mouse EphB2 recombinant protein was pre-coated on the ELISA plate and then incubated with different IgG1s for 1 hr at room temperature. After several washes with DPBS, the EphA4 or EphB2 proteins were then incubated with different biotinylated recombinant mouse ephrin-A/ephrin-B Fc chimera proteins for 1 hr at room temperature. The interaction of EphA4/EphB2 and ephrin-A/ephrin-B was determined via the streptavidin-biotin detection method.

The target in experiment [5] is T3, human EphA4 fused with IgG1 Fc and Avi-tag (EphA4-Fc) (human, UniProt P54764 20-547).
T3 construct: also called human EphA4-Fc; not shown: human IgG1 Fc; Avi-tag
T3 sequence (P54764 20-547 limits assumed): as the sequence (Q03137 20-547 limits assumed) above, with A59P, S121N, G124V, Q250R, N251S, S270T, R378K, S406N counted along it
Kind of experiment: ELISA, EphA4 coated, IgG1 detected with anti-Fab-HRP. As for the experimental part: (§4) FIG. 3. Binding of IgG1s m101, m105, and m119 to mouse and human EphA4 measured by ELISA. Serially diluted IgG1s were added to EphA4-coated wells. HRP-conjugated anti-Fab Ab was used for detection.
as §3

Experiment [6] has as its target T2, extracellular domain of mouse EphA4 …. Kind of experiment: competitive ELISA, mouse EphA4 ECD coated; competitor biotinylated ephrin-B2 Fc; ligand Ephrin-B2. As for the experimental part:
as §1, §2

The target of experiment [7] is T4, extracellular domain of mouse EphB2 recombinant protein (mouse, UniProt P54763 19-543).
T4 construct: extracellular domain; also called EphB2 receptor
T4 sequence (looked up): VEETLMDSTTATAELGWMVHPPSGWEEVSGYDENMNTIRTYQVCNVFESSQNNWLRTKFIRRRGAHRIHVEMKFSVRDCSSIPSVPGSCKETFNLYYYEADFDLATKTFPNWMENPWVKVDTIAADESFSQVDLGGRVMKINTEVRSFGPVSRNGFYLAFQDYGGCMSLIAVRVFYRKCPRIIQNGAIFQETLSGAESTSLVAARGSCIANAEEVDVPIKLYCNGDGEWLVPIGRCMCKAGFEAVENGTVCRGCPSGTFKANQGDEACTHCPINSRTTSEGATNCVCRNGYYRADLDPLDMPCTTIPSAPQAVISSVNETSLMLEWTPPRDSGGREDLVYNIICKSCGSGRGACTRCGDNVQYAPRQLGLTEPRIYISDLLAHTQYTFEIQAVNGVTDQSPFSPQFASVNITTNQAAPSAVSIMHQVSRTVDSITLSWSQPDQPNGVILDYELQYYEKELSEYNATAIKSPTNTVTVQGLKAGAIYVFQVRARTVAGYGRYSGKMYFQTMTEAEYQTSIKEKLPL
Kind of experiment: competitive ELISA: mouse EphB2 extracellular domain coated, incubated with IgG1 m105, then biotinylated mouse ephrin-B2 Fc; streptavidin-biotin detection, % of inhibition. As for the experimental part: as §1, §2

Experiment [8] addresses EphA4 in cultured hippocampal neurons (rat, UniProt D3ZZK3 20-986). Kind of experiment: cell-based or functional assay.
The target of experiment [9] is T2, extracellular domain of mouse EphA4 …. Kind of experiment: competitive ELISA, mouse EphA4 ECD coated; competitor biotinylated mouse ephrin-A5 Fc; ligand mEphrin-A5. How it is done:
as §1, §2

Experiment [10] concerns the target T3, human EphA4 fused with IgG1 Fc and …. Kind of experiment: ELISA, EphA4 coated, Fab detected with anti-FLAG-HRP; human EphA4; Fab, not IgG1. As for the experimental part: FIG. 2. Binding of IgG1s E1 (m101), E2, E5 (m105), and E19 (m119) to mouse and human EphA4 measured by ELISA. Serially diluted IgG1s were added to EphA4-coated wells. HRP-conjugated anti-FLAG Ab was used for detection.
as §3

Experiment [11] shares this target. Kind of experiment: ELISA, EphA4 coated, IgG1 detected with anti-Fab-HRP; human EphA4; IgG1 format. How it is done:
as §4, §3

T1 sequence (P54764 29-209): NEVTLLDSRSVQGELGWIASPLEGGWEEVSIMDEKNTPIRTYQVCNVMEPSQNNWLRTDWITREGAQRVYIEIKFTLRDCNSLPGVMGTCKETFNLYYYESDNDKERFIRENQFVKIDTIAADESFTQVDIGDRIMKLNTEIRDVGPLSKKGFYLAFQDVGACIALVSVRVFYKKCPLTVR

B1: IgG1 m105 (antibody, V domains shown)
VH: EVQLVQSGAEVKKPGSSVKVSCKASGGTFSSYAISWVRQAPGQGLEWMGGIIPIFGTANYAQKFQGRVTMTRDTSISTAYMELSRLRSDDTAVYYCARELLYCSSTSCGTHGFDIWGQGTMVTVSS
VL: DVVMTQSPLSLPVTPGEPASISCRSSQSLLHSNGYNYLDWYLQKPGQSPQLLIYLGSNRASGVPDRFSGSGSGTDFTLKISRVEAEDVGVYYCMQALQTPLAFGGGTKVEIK
notes: Fully human IgG1 made from Fab E5 (pDR12 vector); also called E5; 105L
For the molecule B1, in experiment [1], the Kd is roughly 8.6 nM. Moreover, the IC50 turned out to be 0.34 nM in [2]; 0.78 nM in experiment [3]; 0.35 nM in [4]; 1.81 nM in experiment [6]; 22.7 nM in experiment [9]. This molecule yielded an EC50 in experiment [5] of less than 1 nM. In addition, in [7], the binding result was “no binding (tested: 1000 nM (Log [nM] = 3))”. In addition, the “IC50 of inhibition of ephrin-A1 mediated EphA4 clusters” value in [8] amounted to 4.16 µg/mL.

B2: Fab E5 (m105) (Fab, V domains shown)
VH: EVQLVQSGAEVKKPGSSVKVSCKASGGTFSSYAISWVRQAPGQGLEWMGGIIPIFGTANYAQKFQGRVTMTRDTSISTAYMELSRLRSDDTAVYYCARELLYCSSTSCGTHGFDIWGQGTMVTVSS
VL: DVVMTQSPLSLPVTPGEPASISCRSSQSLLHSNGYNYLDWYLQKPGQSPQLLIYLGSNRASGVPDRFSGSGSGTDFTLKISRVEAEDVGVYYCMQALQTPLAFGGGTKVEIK
notes: Soluble Fab, detected with anti-FLAG antibody; also called clone E5; Fab m105
In [10], B2 had an EC50 of 2 nM.

B3: IgG1 m101 (antibody, V domains shown)
VH: QVQLQQSGAEVKKPGSSVKVSCKASGYTFTGYYMHWVRQAPGQGLEWMGGIIPIFGTANYAQKFQGRVTITADKSTSTAYMELSSLRSEDTAVYYCATAPMVCSSTSCYLRGFDYWGQGTLVTVSS
VL: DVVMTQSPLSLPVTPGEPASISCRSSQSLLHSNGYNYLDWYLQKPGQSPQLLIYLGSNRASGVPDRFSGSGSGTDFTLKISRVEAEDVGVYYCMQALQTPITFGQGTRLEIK
notes: Fully human IgG1 made from Fab E1 by re-cloning into the pDR12 vector; also called E1; IgG1 E1
Take B3: in [1], the Kd is roughly 83 nM. Also, the IC50 in experiment [4] is 0.71 nM. The molecule further showed an EC50 in [11] of 1 nM.

B4: Fab E1 (m101) (Fab, V domains shown)
VH: QVQLQQSGAEVKKPGSSVKVSCKASGYTFTGYYMHWVRQAPGQGLEWMGGIIPIFGTANYAQKFQGRVTITADKSTSTAYMELSSLRSEDTAVYYCATAPMVCSSTSCYLRGFDYWGQGTLVTVSS
VL: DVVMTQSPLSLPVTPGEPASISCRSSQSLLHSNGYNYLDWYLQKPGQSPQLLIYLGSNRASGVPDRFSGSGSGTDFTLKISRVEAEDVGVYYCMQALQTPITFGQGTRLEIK
notes: Soluble Fab from the phage library, detected with anti-FLAG antibody (FLAG tag); also called clone E1; Fab m101
The molecule B4 had an EC50 in [10] of 5 nM.

The values are drawn from US20170218075A1 (HONG KONG UNIVERSITY OF SCIENCE AND TECHNOLOGY, published 2017).
